Test results from the supplement of paper PMC12042874.
± gives the uncertainty stated by the source.

Assay: amyloid nucleation score (Sup35N fusion, yeast selection) (log enrichment); library NNK2; higher = more nucleation; inactive = no reads after selection
How it was run: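 On medium lacking adenine and uracil, psi-negative yeast expressing peptides of 20 random codons fused to Sup35N were grown 7 days at 30°C after a 24-hour induction with 100 μM copper sulfate. Illumina sequencing of input and output plasmid inserts gave the reads, and sequences under 100 input reads were excluded. The nucleation score is the DiMSum log enrichment of output over input reads, centred on the mode score of non-aggregating sequences.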

Substance | amyloid nucleation score
GSYPGRLFTCVKMGVT | 0.363 ± 0.65
IQSNAQESHNSNICESYNND | -1.02 ± 0.62
LNTNPARYLPGMFNPRSKYL | -0.324 ± 1.1
NSIIGCYRGFC | 4.63 ± 0.092
LFMPGSFFDIFE | -2.05 ± 0.78
SDVKYIGMCSCQHSFIMMGM | 0.372 ± 0.36
MCVLECFDAGSGYLR | 1.06 ± 0.59
DVNISASNEVALIASDRLLC | -0.149 ± 0.55
VSVIGKFSFHPKRMRG | -0.481 ± 0.39
YLKGNIKATVFTNSPMLV | -0.085 ± 0.79
LLDLALRLTMGLITKHEANK | 3.61 ± 0.064
GETVGFKARFMLMHTSFLLR | 4.902 ± 0.045
FAYSLHRLLWIRCMYSNGR | 1.45 ± 0.17
LVRTLAYCASKNNFVRL | -0.038 ± 0.63
RFDHMSYRSCPRESEFEVTC | inactive
LLLSFTCLRHTGWFFIRRCC | -0.631 ± 0.41
IAACLFYNRSVNIFTGVDGL | 4.09 ± 0.14
AYKNYIPVVSVH | -1.37 ± 1.1
FQGVVSRYSYYS | 1.81 ± 0.22
KVFLFIFGLLTESPGCDQSP | -0.536 ± 0.4
MSMATTWSIFDWVEREFPFY | -0.933 ± 0.55
VAKAAHFSLVIMYLFK | 0.01 ± 0.43
IPSRAVVPFFLDLRPHADVS | 0.25 ± 0.46
YPVLN | -0.834 ± 0.49
YCMFFCGCVTDPECNVPSDM | 3.49 ± 0.1

Substance | amyloid nucleation score
SSRHNPIWLRTAMDGDLGFA | 0.864 ± 0.5
FAHERHTIYRQVSIMMWRSM | 0.426 ± 0.25
GQVRSFCTGEG | -0.677 ± 1
GMRGNSYAVSYRDIVVLAPC | -0.007 ± 0.55
RMFDYDSGGNNRICYDYYAN | -1.69 ± 0.61
SRDVSLRYCTWCPGVN | 0.789 ± 0.22
HNVYMVFYFAFFSPFMIRYI | 3.44 ± 0.088
KTFTPSIELGYMGHCDCDT | -1.03 ± 0.45
MWISFFCRRYSNIWTGFGYM | -1.09 ± 1
TAVCKISPQQWAGCHLIHRH | 5.3 ± 0.095
PCIFFMRFYFRT | -0.078 ± 0.65
VKEGSLCFYMRRRTGQL | -0.627 ± 0.76
LLNLTSLLRKCLFKNRRKFI | -0.972 ± 0.36
LSLFLLVICSSAFM | inactive
CYLMKSFMNLSDRNVFGNVT | -0.295 ± 0.32
LFMRPCDLFEVVLSTVRLVW | 1.29 ± 0.52
FYFLLG | 0.587 ± 0.32
KVLMLQHPIGYLLNILTMS | -0.017 ± 0.41
RISSSGRP | 2.03 ± 0.082
RAHVYSSKDP | 5.92 ± 0.059
GAKIGKMDVLGFDGDGLIYI | 1.42 ± 0.1
SCCMGICGKDLCDGIELKFP | -0.936 ± 1
YNSTLKFLSKLKLVNIIGTV | -1.26 ± 1.1
PMAPSCLYRIIIMN | 1.51 ± 0.26
SMPPRLQSKLPRDFSAQSVK | 4.63 ± 0.1

Substance | amyloid nucleation score
AVVDH | 0.336 ± 0.41
KLNLGGCLMSRVYC | 0.345 ± 0.16
WSLLV | 0.478 ± 0.8
TYPNKADPLFRS | 0.008 ± 0.46
RVNCSFTDFVDVVIWKGRGN | 5.07 ± 0.089
FIDFGVVVSWVL | 0.985 ± 0.3
VHNVLKRVYSYGFFNKEHIY | inactive
YHRCMKGVRDFVKLVDDCML | -1.09 ± 0.49
KILNCTGSQVKS | -0.032 ± 0.25
VLFCL | -0.806 ± 0.48
KNTMIGSLRLVIYFSSGDKV | 7.17 ± 0.034
NSYILKDFNCEPGVNMDWQN | inactive
IFNVKRGILVTSVFDNVQVW | inactive
FSMRFRKVFICKMDIQQAYV | 0.13 ± 1.1
FWSVEMMRHTSSFIFAEWNK | -0.033 ± 0.2
FRVSSIWDRLVATLGNMCRS | inactive
GGALGDFGTHEFNLNAPYSQ | inactive
TWTHCIGSLIR | -0.855 ± 0.76
IQTNVYWGISCCVSLSLSGL | 9.549 ± 0.022
DFINIPSVFIIYMK | 1.73 ± 0.13
VIAKDLMHMLPLYM | 0.37 ± 0.25
LTWSVVRKYSIALRCGGR | -0.002 ± 0.63
SRVSLHNES | -0.453 ± 1.1
DGPNYILQVFCCMMVNVCGC | 7.609 ± 0.061
GKNELYQVS | 0.774 ± 0.41

Substance | amyloid nucleation score
FINSD | inactive
WTYDVQGREVCYVKPYLAMW | 1.07 ± 0.32
TNSYANMSGTAGNYRSYNIA | -0.522 ± 0.63
CLNPFDSYGTSYCKCWWSAT | -0.451 ± 0.33
FYYNCGWSCNNVTWFSRQFV | 3.04 ± 0.12
VSASFEFRFSSGKWACLWRG | 4.31 ± 0.057
LVLWM | 1.68 ± 0.36
EELAPSCAEDEILILSMLIN | -0.592 ± 0.76
RQYCIKDSWGSSGQLSVGLR | 2.1 ± 0.17
RCRPLCI | -0.299 ± 1
EEWNRRANMGFLNYFETHGG | -1.14 ± 1
TGAWLALFLGRHAKWLALFM | 0.817 ± 0.26
CSLFYRSS | 4.06 ± 0.056
NGLYVAIFSVNLFPPLTKYI | 5.422 ± 0.053
LLPWGVTMVERLFIPIRCSD | 0.308 ± 0.35
CLNKIETPSTVKFRECHCCD | 4.517 ± 0.041
LRQGCFQTVKLDYRES | -0.032 ± 1.1
LDLALSQH | 1.54 ± 0.53
DCLYGRFRHRHG | 5.723 ± 0.035
RNSIYMVTYIMVLDRIA | 6.127 ± 0.046
LVILEINVPKNIVSQRNYVP | 8.045 ± 0.03
ICLVLCRGSDA | 0.554 ± 0.74
RSRSSFLHIFSSFKHISTR | -0.74 ± 1.1
GVTFNADASTFRDACMARLG | 0.752 ± 0.48
YVYVDYWICTIWCVLCNLCS | 0.256 ± 1

Substance | amyloid nucleation score
GNCPLMPMKFRNRMSHSAFS | 0.517 ± 0.4
TDYVRHKRRNYCLL | 1.12 ± 0.43
ESRHSSLFHHPE | 0.119 ± 0.65
TYSFVSLTYDSVTVFALTRC | -0.326 ± 0.49
LFACFRNMLV | 0.504 ± 0.39
CWGVVGSAAGWYSGTK | 1.46 ± 0.21
HARHRGVCFWCVADSAPVYH | -0.012 ± 1.1
VVCYLRIYRRILYSGIKKWP | 3.71 ± 0.073
VPPPVGVIYGIQ | 0.637 ± 0.32
NQWDPMFDRIPTMAALAGPG | 3.4 ± 0.1
IIEPYVHGVWKFHRFYLKSA | -0.701 ± 0.55
HRASRMCGINLARPTVMVVT | 1.9 ± 0.12
YILSDIIFMGIWGV | 4.1 ± 0.13
PLVLKCRCLI | -1.32 ± 1.1
KRHNR | 0.846 ± 0.48
AVRPGSRSWGVIRGVNSTFL | 1.08 ± 0.43
PKMRFFPIARSSIRERNVWV | -1.31 ± 0.34
PFSRLNPRDPLWVEMFVCWQ | 3.48 ± 0.066
ITRSGWDFYLS | 0.687 ± 0.49
FEVLIFVDCWFVVMGRETLN | 2.68 ± 0.15
ARLLTRNINESNRFI | 0.065 ± 0.28
LDGITSIDG | -1.15 ± 0.74
LYPCNLELVQQHFLVMTNLG | -0.034 ± 0.23
TMDYRTND | 0.443 ± 0.23
FLSVARPTF | inactive

Substance | amyloid nucleation score
YPFLIS | -0.922 ± 1
MCCFRNSNVGAYRSSSIVNG | -0.403 ± 1
TSVFFQGIALP | 8.228 ± 0.029
ITPFHT | -0.448 ± 0.3
SIGLLTGKWLPSLMVLYLLV | 1.29 ± 0.44
SICRPIMSESWIASPCVLVG | -0.012 ± 0.24
KDCLTVVMLSLVHLRPCY | inactive
YTNVVYNYLRSCCGAWYGQR | 9.015 ± 0.068
NLNVGALSSKWVW | inactive
LLVKRCSAKPNLRRLLKLMC | -0.097 ± 0.76
GVTSCLRRPWFKYVILSPRP | 1.44 ± 0.21
FYSCCPWLSLRSAMIYVMIS | 1.61 ± 0.22
MHEEP | 1.29 ± 0.23
GSVHANKD | -0.299 ± 0.63
RFYKSNGPRF | -1.28 ± 0.78
CTSHWAYEDEDFFIDRLYFT | -0.796 ± 0.3
GMRIFNYKNRDYWMACTAMT | inactive
LLEYNIFLRSIVFDGREEWA | 3.18 ± 0.058
RDKPPVSKYTSRTREFMLVR | 0.987 ± 0.39
CKLISFIRYPPPAYVVSRER | 2.33 ± 0.13
YDVSYYCNCIAVLKSRLREL | 5.203 ± 0.031
SVNNHGRLYVWLERLSYTTF | 2.24 ± 0.14
ISWTPSGAIVVS | inactive
SFACVSLIFISY | 5.72 ± 0.063
IVYWSSEWRKPGAHDTLD | 0.451 ± 0.24

Substance | amyloid nucleation score
AVYCTL | 0.088 ± 0.35
NYLMWVITSTYWRHGRESWA | 3.03 ± 0.057
LDLNFEWFW | inactive
ANGGYMVYSFAEEYYYDWCT | -0.063 ± 0.29
TLLDKLK | inactive
VLFSDA | -0.08 ± 1
AFVSSQVSTYYNFRTKDYSW | 3.68 ± 0.098
CCAVTVAMECGGIVLVRYCF | 0.453 ± 0.66
SDNAEGVSANFFVRPILSVF | -1.47 ± 1.1
ENSANNLGMFERSSRYRLSG | 0.356 ± 0.34
GLIYIRDFSFREKGGCYQGL | -1.29 ± 1.1
HACSMSIFEFRMCKKWSLLV | -0.848 ± 0.38
ADQSYLRNCIFWRQMILTRY | -0.193 ± 0.39
DVKSYTITYSLSFHVMSVII | 2.72 ± 0.21
TLGTIPIWTEIRPEYNSPLM | 0.371 ± 0.51
RMSHWLSYWVDKS | 0.938 ± 0.57
LLGAGLSITMWDGPQL | 0.654 ± 0.23
RKMGSFNHLSERVSYHCVWL | 3.96 ± 0.052
SVFVGLRLGKAS | 0.11 ± 0.28
PGSLSLIINIKCTTAKDRTL | 2.79 ± 0.13
GRWSRF | 0.446 ± 0.64
WERDTFAVLLVRNFNR | 0.187 ± 0.43
PLWPSNSD | -0.331 ± 0.54
